Target: T1, proliferating cell nuclear antigen (PCNA) (UniProt P12004 1-261)
T1 construct: Used both for endogenous PCNA of HeLa cell extracts (co-IP, cross-linking) and for the untagged 'PCNA' used as probe in the dot blot; also called endogenous PCNA
Experiment: co-IP with anti-GFP antibodies from stably expressing cells, anti-PCNA western blot
Method: An in-house affinity purified rabbit polyclonal antibody raised against GFP protein, which also recognises EYFP and ECFP proteins, was covalently linked to protein-A paramagnetic beads (Dynal®) according to procedure from New England Biolabs® Inc (from now on called α-GFP beads). Each fraction was incubated with α-GFP beads (10 μl) during constant rotation at 4° C. over night (IP). After IP, the beads were washed 4 times with 200 μl 10 mM Tris-HCl, 50 mM KCl (pH 7.5), with 5 min incubation on ice in between. The beads were then resuspended in NuPAGE ® (Invitrogen) loading buffer and 1 mM DTT, heated, and separated on 10% or 4-12% Bis-Tris-HCl (NuPAGE®) gels and transferred to PVDF membranes (Imrnobilon®, Millipore). The membranes were blocked for 1 h in 5% low fat dry milk in PBST (PBS with 0.1% Tween® 20). The primary antibodies, α-PCNA (PC10, Santa Cruz biotechnology Inc.) and α-GFP were diluted in 1% dry milk in PBST and incubated for 1 h, followed by 1 h incubation with secondary antibodies, Polyclonal Rabbit Anti-mouse IgG/HRP and Polyclonal Swine Anti-rabbit IgG/HRP, respectively (DakoCytomation, Denmark). The membranes were treated with chemiluminescence reagent (SuperSignal® West Femto Maximum, PIERCE), and the proteins visualised in Kodak Image Station 2000R. […]

T1 sequence (P12004 whole entry): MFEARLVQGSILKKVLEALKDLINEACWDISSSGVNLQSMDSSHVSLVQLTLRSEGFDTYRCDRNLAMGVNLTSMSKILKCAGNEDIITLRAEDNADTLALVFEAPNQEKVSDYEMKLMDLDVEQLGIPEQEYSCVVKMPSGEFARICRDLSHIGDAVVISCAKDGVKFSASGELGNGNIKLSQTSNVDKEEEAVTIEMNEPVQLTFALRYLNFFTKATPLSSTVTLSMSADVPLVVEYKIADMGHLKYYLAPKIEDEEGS

B1: hABH211-261-EYFP (other, human, UniProt Q6NS38 11-261, looked up)
chain: GGLLRKQEEQEPTGEEPAVLGGDKESTRKRPRREAPGNGGHSAGPSWRHIRAEGLDCSYTVLFGKAEADEIFQELEKEVEYFTGALARVQVFGKWHSVPRKQATYGDAGLTYTFSGLTLSPKPWIPVLERIRDHVSGVTGQTFNFVLINRYKDGCDHIGEHRDDERELAPGSPIASVSFGACRDFVFRHKDSRGKSPSRRVAVVRLPLAHGSLLMMNHPTNTHWYHSLPVRKKVLAPRVNLTFRKILLTKK
notes: not shown: C-terminal EYFP tag (pEYFP-N1)
binding result: no binding

Reference: patent US20110020437A1 (APIM THERAPEUTICS, published 2011)
